Measurements published in the supplement of paper PMC9170038.

Tested on: MS2 coat protein
Assay: apparent KD of MS2 coat protein; designed switch direction (-1 OFF switch, 1 ON switch): -1; higher = weaker reporter binding
Conditions: Eterna round: R98
Experimental: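 RNA-MaP: designed FMN/MS2 RNA switches (84 nt design region) are transcribed on-chip within common flanks and titrated with SNAP-549-labelled MS2 coat protein (about 1-3000 nM) in 100 mM Tris pH 7.5, 80 mM KCl, 4 mM MgCl2, without or with 200 uM FMN. Median apparent KD per design; activation ratio = KD,OFF / KD,ON.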

For “UCGAACGGAAACAAAGUCAAUAGACAUGAGGAUCACCCAUGUAAGGAUAUGCCUACUAAAAGUAGGCAGAAGGUACGCGUUCGA [Contusion 5 - Jieux - Exclusion NG 3]”, the “apparent KD of MS2 coat protein” value (input ligand: FMN 200 uM) was 27.2 nM and the “apparent KD of MS2 coat protein” value (input ligand: none) was 18.3 nM.
In the case of “GCGGGAUGAGUCGUUGGUUCACAUGAGGAUCACCCAUGUAGGGAGGAUAUGCAUCUGGUCCCGGAGCAGAAGGCCCUGCAUCGA [Raedxea]”, the “apparent KD of MS2 coat protein” value (input ligand: FMN 200 uM) is reported as 1540 nM and the “apparent KD of MS2 coat protein” value (input ligand: none) is reported as 555 nM.
In the case of “GUCAGGAAUGUAGGAUAUCGUCAGGAAUACUGGCGAGAAGGACAUGAGGAUCACCCAUGUAAAAUGAAAGAUAAUAAACCUGGC [Exclsuion NG 1/2-C1]”, the “apparent KD of MS2 coat protein” value (input ligand: FMN 200 uM) is reported as 31.9 nM and the “apparent KD of MS2 coat protein” value (input ligand: none) is reported as 18.7 nM.
For “CCGGGCCCGGGAGGAUAUACAUGAGGAUCACCCAUGUAUUCUCGGCCCGGCGAAAGCCGGGCCAUGUAGAAGGCCCGGGCCCGG [high melting point]”, the “apparent KD of MS2 coat protein” value (input ligand: FMN 200 uM) was 103 nM and the “apparent KD of MS2 coat protein” value (input ligand: none) was 24.3 nM.
In the case of “AGACUCAGAUGGUGCCAGCUUGCACAUGAGGAUCACCCAUGUCAGGAUAUCUUCGCUCCGGGAGAAGAGAAGGGACAAGAAAUU [Anenan]”, the “apparent KD of MS2 coat protein” value (input ligand: FMN 200 uM) is reported as 165 nM and the “apparent KD of MS2 coat protein” value (input ligand: none) is reported as 104 nM.
For “CACCGUUACAGAGGAUAUGACACAUGAGGAUCACCCAUGUAAUAAAUGAGAAUUUCGAAUGUAACUCAGAAGGCUGGAAUCGGC [JieuxMod 1 - Jieux - Exclusion NG 2]”, the “apparent KD of MS2 coat protein” value (input ligand: FMN 200 uM) was 61.6 nM and the “apparent KD of MS2 coat protein” value (input ligand: none) was 25.9 nM.
